In the supplement of paper PMC12764529:
± gives the half width of the 95% confidence interval.

How the values were obtained:
[1] = folding stability dG unfold (combined trypsin and chymotrypsin); higher = more stable
Method in brief: (§1)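 Unfolding free energy was derived, per protease or combined, by relating Bayesian-fitted K50 values from sequencing counts to a sequence-predicted unfolded-state K50 and a shared folded-state K50. The underlying digests exposed cysteine-free mini-proteins under 80 residues, in a PA-tagged cDNA display construct, to trypsin and chymotrypsin at 11 threefold-diluted concentrations and to a no-protease condition. A filter kept only designs with AlphaFold2 dimer inter-PAE above 15.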

[2] = folding stability dG unfold from trypsin proteolysis; higher = more stable
Method in brief: as §1

[3] = folding stability dG unfold from chymotrypsin proteolysis; higher = more stable
Method in brief: as §1

Sequence	folding stability dG unfold [1]	folding stability dG unfold [2]	folding stability dG unfold [3]
SAGGDWRTITFNFEVDVPPGQTPEQLIEKAEEIVEELARMFPDVKIEVTDIEVDEDKVYIDVEIRVPDSAGG [r13_805_TrROS]	3.22 ± 0.16 kcal/mol	2.6 ± 0.17 kcal/mol	3.45 ± 0.097 kcal/mol
SAGKKTITVEIVVENLTEEEIEEKIREKLKEAGLKVEVVKVEIVKVEEVDGKKYLVVKVEIKIEPEEESAGG [r19_325_TrROS_Hall]	3.06 ± 0.12 kcal/mol	3.5 ± 0.18 kcal/mol	2.87 ± 0.084 kcal/mol
SAGGMSVTFEKEDKTYVITFEPSPEGGYLVTLEVLDPKTGEAKPVATAEFTEGSLEDAVVALLAAEESAGGS [r16_378_TrMRF]	3.7 ± 0.12 kcal/mol	4.08 ± 0.3 kcal/mol	3.67 ± 0.08 kcal/mol
SAGGSAGGSAGGPEKGKWKLVLVTMTIPLPPGASIPIPNGVWIYYTDGKIEIWFLMWVPDSAGGSAGGSAGG [r7_506_TrROS]	4.8 ± 0.21 kcal/mol	3.33 ± 0.15 kcal/mol	5.07 ± 0.11 kcal/mol
SAGGSASMTLYRDEEGKPLFHHSPEPTSSVPRVVPVVNEEGDEKLEIEIPADTPLEELEAIIEELLSAGGSA [r15_309_JUSTAS]	-0.0861 ± 0.096 kcal/mol	0.0733 ± 0.04 kcal/mol	-0.33 ± 0.18 kcal/mol
SMIKPDEVVEKIEFTFPDGVAGDTRTFPVPEGSVIVYIDLGEPVYVMEILEDGSVKIEPVPEEVAKELAKSA [r9_1144_TrMRF]	0.3 ± 0.12 kcal/mol	0.37 ± 0.048 kcal/mol	0.115 ± 0.1 kcal/mol
SAGGSAKITVEVVVRSLEELEALVKALAPPGMEVEVKIVSVERRTVEVNGEKREVLVVRVEIEVKPSAGGSA [r15_95_TrROS_Hall]	3.9 ± 0.33 kcal/mol	4.61 ± 0.37 kcal/mol	3.09 ± 0.17 kcal/mol
SGMLLTVATKTEESELPDGGKKKVTTTTVELSGPHSVTYTPVTTLAPDGTVPASTTTVYDTVSGETTTAPSA [r9_641_JUSTAS]	0.145 ± 0.074 kcal/mol	0.259 ± 0.032 kcal/mol	-0.2 ± 0.058 kcal/mol
KPKIVEKKEITIKLNGKTIKITLVKNKETGKYYAKIEIFEYDKNGKLVKKETITLEFDSLEDLLEALKKLAS [r1_288_TrROS_Hall]	3.18 ± 0.4 kcal/mol	2.14 ± 0.091 kcal/mol	3.67 ± 0.071 kcal/mol
SASMSPEELIEIEIELKRGNRNFTLKIKIPVGLSEEEIEEAIEKAKKELEEKVKKLEEEPPLNPENNLISAG [r14_70_JUSTAS]	3.11 ± 0.12 kcal/mol	2.33 ± 0.17 kcal/mol	3.45 ± 0.06 kcal/mol
SAGGSAGGSAGKEIKVETEENPNGQHPVKIEIYDGGNPRPIEFPVDSPEDAEDWAKELLKSAGGSAGGSAGG [r11_560_TrROS]	-0.0496 ± 0.079 kcal/mol	-0.595 ± 0.074 kcal/mol	0.148 ± 0.031 kcal/mol
SAGGSMTLEEKSEEDYIIRYVEKGDTYSLIKINPNTGTAEVTTFKPGGVPSKTTYKIPKGKELKVTGSAGGS [r8_11_JUSTAS]	0.481 ± 0.079 kcal/mol	-0.0399 ± 0.11 kcal/mol	0.726 ± 0.12 kcal/mol
SAGGSAGGSAKEIDFKFRSPGNGEEFPFRVEIDEFDPDDGPLLIKVEMPNGKPHTFPADDILSAGGSAGGSA [r18_334_TrROS]	0.503 ± 0.11 kcal/mol	0.101 ± 0.086 kcal/mol	0.76 ± 0.15 kcal/mol
SAGGMEEVIEEAIEAAKKGENVTITLPASVDPEVVLKALEEASGLKVTPISVTPLPDGTLRIEVKIESAGGS [r16_318_JUSTAS]	5.08 ± 0.54 kcal/mol	4.24 ± 0.19 kcal/mol	4.24 ± 0.14 kcal/mol
SAGGSAGGSAGGVIKTFTSPDNKKYTVTVNKDGSVTVETFDPETGKKSISTVSAAEASLSAGGSAGGSAGGS [r10_838_JUSTAS]	1.18 ± 0.063 kcal/mol	1.32 ± 0.029 kcal/mol	0.828 ± 0.066 kcal/mol
SAGGMKITIKEDEETGEKVIEIEDEETGERVRVVFNPDGEEIEIEVPSPEVLEALKELGIEKVEVEEVSAGG [r13_511_TrROS_Hall]	0.976 ± 0.19 kcal/mol	0.732 ± 0.13 kcal/mol	1.07 ± 0.063 kcal/mol
SAGGSAGGSAGKPKVYVKPIVKKGDYVLYLSYYPEEKKIELWVDKFGDKPKRFVKEYPLESAGGSAGGSAGG [r11_738_TrMRF]	1.13 ± 0.068 kcal/mol	0.866 ± 0.043 kcal/mol	1.25 ± 0.07 kcal/mol
SAGGFEITEEREAVKTSPPEGPLRVEERLVIEVKSEDPEKALEEAQKETGLPVEVEVDPETGSVTITVRSAG [r5_907_JUSTAS]	0.448 ± 0.18 kcal/mol	-0.523 ± 0.56 kcal/mol	0.766 ± 0.11 kcal/mol
SVSSKISKVVSETVEDDKRTVTIEVNVPSPVVEIYDSSGKVIKTVPLGKKTTITVTTDPKGTSVSVKVLNSA [r9_917_JUSTAS]	0.697 ± 0.11 kcal/mol	0.46 ± 0.12 kcal/mol	0.967 ± 0.044 kcal/mol
SAGGYEKKTIRIEATPEELENLLKELREKYPDLKVEVKVVKVEKKENDPNVSPKDKKVYLEITVVKPKPSAG [r5_437_TrROS_Hall]	1.88 ± 0.17 kcal/mol	1.39 ± 0.12 kcal/mol	1.89 ± 0.13 kcal/mol
SAGGSAGGSAGMSSVAPITTPDGKVAESVTVTEETLPNGEVVTKITTTLPDGTVVTTTLESAGGSAGGSAGG [r11_810_JUSTAS]	1.3 ± 0.1 kcal/mol	1.59 ± 0.066 kcal/mol	0.997 ± 0.051 kcal/mol
